Measured values taken from patent US12709641B2, “Tau binding compounds” (VOYAGER THERAPEUTICS, INC., dated 2026).
No end group written: not given here.

Tests used:
[1] = target: enriched paired helical filament tau protein (ePHF) (human, phosphorylated residues of pathological tau, sites not stated); experiment: follow up analysis, method not stated
iPHF = iPHF (Homo sapiens (Human), UniProt P10636-8); experiment: Octet, antibody on biosensor tips
Method: Anti-human tau antibodies were assessed for affinity for iPHF by Octet (ForteBio, Menlo Park, CA) analysis. Recombinant mouse IgG antibodies were prepared with clone-specific variable domain pairs selected from those presented in Table 3 and mouse IgG1 constant domains. Candidate antibodies were immobilized on biosensor tips (ForteBio) in kinetic buffer (ForteBio). Biosensor tips were then washed before introduction of a solution of iPHF in kinetic buffer for analysis of association and dissociation with candidate antibodies. Affinity measurements (K_D) were obtained using Data Analysis HT version 11.1 and corrected for background and high-frequency noise.

[2] = target: T1, residues 57-72 of human tau (human, also: biotin, site not given here, phosphorylated residues, sites not given here); experiment: Pepscan biotinylated peptides, BLI or colorimetric detection
T1 peptide: EEPGSETSDAKSTPTA
Method: (§1) Recombinant mouse IgG antibodies were prepared with clone-specific variable domain pairs selected from those presented in Table 3 and mouse IgG1 constant domains. Epitope analysis was carried out with different anti-tau antibodies using a peptide scanning approach (e.g., see Verelst, J. et al. Front Mol Biosci. 2020 Mar. 31; 7:48). Libraries of overlapping synthetic biotinylated peptides corresponding to phosphorylated human tau (Pepscan, Lelystad, NL) were obtained and used to coat assay plate wells, each with individual library members. Recombinant mouse IgG antibodies were prepared with clone-specific variable domain pairs selected from those presented in Table 3 and mouse IgG1 constant domains. Antibody binding to peptides in each well was analyzed using colorimetric detection of peptide-antibody complexes with labeled secondary antibody or by associating biotinylated peptides with streptavidin coated biosensors in assay wells and assessing antibody binding by bio-layer interferometry (BLI)-based detection.

[3] = target: T2, residues 175-191 of human tau (human, also: biotin, site not given here, phosphorylated residues, sites not given here); experiment: as above
T2 peptide: TPPAPKTPPSSGEPPKS
Method: as §1

[4] = target: T3, residues 223-238 of human tau (human, also: biotin, site not given here, phosphorylated residues, sites not given here); experiment: as above
T3 peptide: PKKVAVVRTPPKSPSS
Method: as §1

[5] = target: T4, residues 383-400 of human tau (human, also: biotin, site not given here, phosphorylated residues, sites not given here); experiment: as above
T4 peptide: KAKTDHGAEIVYKSPVVS
Method: as §1

selectivity for ePHF over wild type tau [1]: > 100 fold | Kd (iPHF): 0.6 nM | Kd [2]: 14 nM | Kd [3]: 7.24 nM | Kd [4]: 2.08 nM | Kd [5]: 12.6 nM
B1: V0052 (antibody, V domains shown)
VH: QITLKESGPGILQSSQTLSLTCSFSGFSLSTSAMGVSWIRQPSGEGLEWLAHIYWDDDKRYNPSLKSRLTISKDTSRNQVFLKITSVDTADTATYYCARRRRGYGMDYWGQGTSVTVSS
VL: SIVMTQTPKFLLVSAGDRVTITCKASQSVSNDVAWYQQKPGQSPKLLIYYASNRCTGVPDRFTGSGYGTDFTFTISTVQAEDLAVYFCQQDYRSPLTFGAGTKLELK
